Laboratory results: patent US20130224191A1, “NOTUM PROTEIN MODULATORS AND METHODS OF USE” (priority 2010, published 2013)
Numbering of substitutions follows the chain as printed. Numbers in names are those of the source.

B1: macaque Notum-hFc: fusion construct of macaque Notum and human Fc region (protein)
chain: SEGRKTWRRRGQQPPPPPRTEAAPAAGQPVESFPLDFTAVEGNMDSFMAQVKSLAQSLYPCSAQQLNEDLRLHLLLNTSVTCNDGSPAGYYLKESRGSRRWLLFLEGGWYCFNRENCDSRYNTMRRLMSSRDWPRTRTGTGILSSQPEENPYWWNANMVFIPYCSSDVWSGASSKSEKNEYAFMGALIIQEVVRELLGRGLSGAKVLLLAGSSAGGTGVLLNVDRVAEQLEELGYPAIQVRGLADSGWFLDNKQYRHTDCVDTITCAPTEAIRRGIRYWNGVVPERCRRQFQEGEEWNCFFGYKIYPTLRCPVFVVQWLFDEAQLTVDNVHLTGQPVQESQRLYIQNLGRELRHTLKDVPASFAPACLSHEIIIRSHWTDVQVKGTSLPRALHCWDRSLHDSHKNSKTPLKGCPVHLVDSCPWPHCNPSCPTVRDQFTGQEMNVAQFLMHMGFDVQTVAQQQGPEPSKLLGL
modifications: left off: a dimerising Fc or GST
notes: fusion construct of macaque Notum and human Fc region
B2: murine Notum-His: His tagged murine Notum (protein)
chain: SEGRKTWRRRGQQPPQPPPPPPLPQRAEVEPGAGQPVESFPLDFTAVEGNMDSFMAQVKSLAQSLYPCSAQQLNEDLRLHLLLNTSVTCNDGSPAGYYLKESKGSRRWLLFLEGGWYCFNRENCDSRYSTMRRLMSSKDWPHTRTGTGILSSQPEENPHWWNANMVFIPYCSSDVWSGASPKSDKNEYAFMGSLIIQEVVRELLGKGLSGAKVLLLAGSSAGGTGVLLNVDRVAELLEELGYPSIQVRGLADSGWFLDNKQYRRSDCIDTINCAPTDAIRRGIRYWSGMVPERCQRQFKEGEEWNCFFGYKVYPTLRCPVFVVQWLFDEAQLTVDNVHLTGQPVQEGQWLYIQNLGRELRGTLKDVQASFAPACLSHEIIIRSYWTDVQVKGTSLPRALHCWDRSFHDSHKASKTPMKGCPFHLVDSCPWPHCNPSCPTIRDQFTGQEMNVAQFLMHMGFDVQTVAQQQGMEPSKLLGMLSNGN
modifications: left off: small tags and cut ends
B3: murine Notum-hFc: fusion construct of mouse Notum and human Fc region (protein)
chain: B2 chain
modifications: left off: a dimerising Fc or GST
notes: fusion construct of mouse Notum and human Fc region
B4: human-NOTUM S232A mutant: human Notum with S232A point mutation of the putative catalytic nucleophile (His and hFc) (protein, UniProt Q6P988 20-496, looked up, variant S232A)
Palmitoleoyl-protein …: SEGRKTWRRRGQQPPPPPRTEAAPAAGQPVESFPLDFTAVEGNMDSFMAQVKSLAQSLYPCSAQQLNEDLRLHLLLNTSVTCNDGSPAGYYLKESRGSRRWLLFLEGGWYCFNRENCDSRYDTMRRLMSSRDWPRTRTGTGILSSQPEENPYWWNANMVFIPYCSSDVWSGASSKSEKNEYAFMGALIIQEVVRELLGRGLSGAKVLLLAGSAAGGTGVLLNVDRVAEQLEKLGYPAIQVRGLADSGWFLDNKQYRHTDCVDTITCAPTEAIRRGIRYWNGVVPERCRRQFQEGEEWNCFFGYKVYPTLRCPVFVVQWLFDEAQLTVDNVHLTGQPVQEGLRLYIQNLGRELRHTLKDVPASFAPACLSHEIIIRSHWTDVQVKGTSLPRALHCWDRSLHDSHKASKTPLKGCPVHLVDSCPWPHCNPSCPTVRDQFTGQEMNVAQFLMHMGFDMQTVAQPQGLEPSELLGMLSNGS
modifications: His tag or human Fc
B5: D141S: human Notum point mutated at D141 to the murine residue (protein)
chain: B4 Palmitoleoyl-protein … with D122S, A213S
B6: D141N: human Notum point mutated at D141 to the macaque residue (protein)
chain: B4 Palmitoleoyl-protein … with D122N, A213S
B7: D340A: human Notum with D340A point mutation of the catalytic acidic residue (protein, UniProt Q6P988 20-496, looked up, variant D340A)
Palmitoleoyl-protein …: B4 Palmitoleoyl-protein … with A213S, D321A
B8: macaque Notum: recombinant macaque Notum protein, construct not stated (protein)
chain: B1 chain
modifications: left off: a dimerising Fc or GST
B9: murine Notum: recombinant murine Notum protein, construct not stated (protein)
chain: B2 chain

test system: Wnt3A-mediated induction of luciferase in the 293.TCF cells; test: Wnt3A canonical signaling assay, bioactivity of Notum constructs; assay type: cell-based, human; settings: not given
Excerpt: To generate a stable population of cells that contain a reporter for the activation of canonical Wnt signaling, HEK 293T cells were transduced with a lentiviral vector, pGreenFirel-TCF (System Biosciences) which encodes a bifunctional GFP and luciferase reporter cassette under the control of a minimal CMV reporter linked to four tandem repeats of the transcriptional response elements for TCF. Transduced cells populations, termed 293.TCF cells, were subsequently used in a Wnt3A canonical signaling assay as follows: 2.5×10^4 293.TCF cells were plated per well of a 96-well tissue culture plate in 50 μL of serum-free DME medium. After 24 hours of serum starvation, 25 μL of various dilutions of conditioned medium (CM) from L/Wnt3A cells (ATCC CRL-2647; Willert, 2003) or undiluted CM from parental L-cells (ATCC CRL-2648) along with 25 μL of DMEM+0.2% FBS were added to each well. Eighteen hours after addition of CM, 100 μL of One-Glo solution (ProMega Corp.) was added to each well. The contents of each well were then mixed thoroughly to lyse the cells, 100 μL of lysate transferred to black 96-well plates, and the luminescence in each well read after 5 mins using a Wallac Victor3 Multilabel Counter (Perkin-Elmer Corp). […] More particularly, as the Wnt3A+ CM media is diluted from 25% down to approximately 3%, activation of the Wnt pathway is reduced with a corresponding decrease in luminescence.
Once the luciferase reporter system was established, assays for determining the bioactivity of various Notum modulators were performed as follows. 2.5×10^4 293.TCF cells were plated per well of a 96-well tissue culture plate in 50 μL of serum-free medium. After 23 hours of serum starvation, 25 μL of DMEM+0.2% FBS containing various Notum modulators at various concentrations (e.g., hNotum-His, hNotum-hFc, hNotum-S232A-His, murine Notum-His, murine Notum-hFc, macaque Notum-hFc, control protein-His or control protein-hFc obtained as per Examples 7, 8 and 13 above), were added to the cells. After 1 hour, 25 μL of Wnt3A or control L-cell CM were added to each well. Eighteen hours after addition of CM, 100 μL of One-Glo solution (ProMega Corp.) was added to each well, the contents of each well mixed thoroughly to lyse the cells, 100 μL of lysate transferred to black 96-well plates, and the luminescence read after 5 minutes.

Molecule | antagonism of Wnt3A-mediated induction of luciferase
B1 | functionally antagonize
B2 | functionally antagonize
B3 | functionally antagonize
B4 | did not antagonize
B5 | retained bioactivity
B6 | retained bioactivity
B7 | no ability to antagonize

same assay, conditions: listed as S232A

Molecule | antagonism of Wnt3A-mediated induction of luciferase
B4 | no ability to antagonize

test system: not listed separately; test: Esterase activity of Notum proteins on chromogenic substrates; assay type: biochemical; settings: 1 hour at 37° C.
Description: Briefly, PNPA or PNPB were dissolved/diluted in isopropanol to final concentrations of 10 mM. These substrate solutions were diluted 1:10 into assay buffer (0.1% gum arabic, 2.3 mg/mL sodium dexoycholate, 1×PBS) and incubated with defined amounts of hNotum enzyme, and the enzymatic release of the chromophore p-nitrophenol monitored by absorbance measurements at 405 nm.

Molecule | esterase activity
B8 | display esterase activity
B9 | display esterase activity
B4 | greatly reduced esterase activity

test system: not listed separately; test: 4-MUH fluorescent hydrolase assay, activity of Notum constructs; assay type: biochemical; settings: not given
Description: In addition to the assays described in Examples 23 and 24, a fluorescent esterase substrate, 4-methylumbelliferyl heptanoate (Sigma), can be used to measure the activity of hydrolases using standard assay conditions (Richardson and Smith, 2007, PMID: 17620441; Jacks and Kircher, 1967, PMID: 5582971). Briefly, 4-MUH was dissolved in DMSO to a final concentration of 1.2 mM. This substrate was diluted 1:10 into assay buffer (0.1M Tris, pH 7.5, 50 mM NaCl, 0.05% Brij) and incubated with defined amounts of Notum enzyme or point-mutated Notum enzymes, and enzymatic release of the fluorescent molecule 4-methylumbelliferone monitored (355 nm excitation, 460 nm emission) using a Wallac Victor3 Multilabel Counter (Perkin Elmer).

Molecule | hydrolysis of the 4-MUH substrate
B4 | no ability to hydrolyze the 4-MUH substrate
B5 | retained bioactivity
B6 | retained bioactivity
B7 | no ability to hydrolyze the 4-MUH substrate
